Assay results: the supplement of paper PMC10724198
± gives the standard deviation of the averaged measurements.

System: Saccharomyces cerevisiae
Experiment: protein stability index of tFT-peptide fusion (C-terminal peptide) (PSI (0-1 scale)); higher = more stable (slower turnover)
Conditions: genetic background: wild type; temperature: 30 C
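Also: PSI is a weighted mean of sequencing reads over stability bins, variants kept only with over 10 reads, mCherry proximal and sfGFP distal, peptide attached via GGGS linker.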

Row | Sequence | protein stability index
1 | INVKRSNAQRKG | 0.754 ± 0.058
2 | IGFHGALPGICL | 0.663 ± 0.054
3 | TWSSLVSAVRRN | 0.701 ± 0.079
4 | PVTPHESVVPSL | 0.686 ± 0.02
5 | PPGAQPRSPSPL | 0.771 ± 0.08
6 | SPIRLPATSPSR | 0.639 ± 0.046
7 | GEKREGRKTRRD | 0.608 ± 0.046
8 | FSASMSTIWQTG | 0.602 ± 0.034
9 | PRLLPPDPRHAP | 0.7002 ± 0.0032
10 | AYCGLEGFLGLG | 0.688 ± 0.051
11 | CNVGAIVGLVWV | 0.6002 ± 0.0019
12 | GFLPSIVPPVPR | 0.753 ± 0.02
13 | CFAPRAPIRRFF | 0.733 ± 0.032
14 | DVHNRSPNRAPE | 0.671 ± 0.042
15 | KYLPSVVYIYRL | 0.531 ± 0.023
16 | YVSNKMHGSLLS | 0.691 ± 0.03
17 | RVVYANSRVSDN | 0.6479 ± 0.0055
18 | GGGLMVARFGPS | 0.664 ± 0.037
19 | AFLLPYTSLLLT | 0.516 ± 0.026
20 | SPLPHRLFPFWS | 0.79 ± 0.015
21 | KCKRGYSAVREL | 0.936 ± 0.09
22 | CLRGFWSQFMRF | 0.678 ± 0.032
23 | SRLPGLELCNRI | 0.675 ± 0.041
24 | TFGGLRVGFSSL | 0.684 ± 0.028
25 | GGRRLKDAETWA | 0.615 ± 0.029

Row | Sequence | protein stability index
26 | SGAIDRSAYIDG | 0.622 ± 0.028
27 | KALGLRDHAILD | 0.6583 ± 0.004
28 | PTPPHPSHPTAP | 0.665 ± 0.023
29 | GAFCGGSSVFYL | 0.659 ± 0.01
30 | LFTFEADKCDLT | 0.774 ± 0.092
31 | THPPSLAPPRKA | 0.712 ± 0.0074
32 | PRTHPPPPAPCR | 0.6634 ± 0.0054
33 | SPFPSPVLPPHT | 0.7153 ± 0.006
34 | TNTPVYRQAPQM | 0.657 ± 0.02
35 | GARGMGGLFFLG | 0.728 ± 0.053
36 | FLGFGGAWSWGG | 0.766 ± 0.16
37 | ILPYTDTVCYRY | 0.699 ± 0.047
38 | ADRSVGSAACSP | 0.72 ± 0.15
39 | LSADVNRRLGLS | 0.674 ± 0.035
40 | GCFLRHAPALRF | 0.735 ± 0.063
41 | KLQPVTTTQTIG | 0.6713 ± 0.004
42 | ELSNLRGLHTCT | 0.654 ± 0.02
43 | LGEHHKEQEKNV | 0.654 ± 0.023
44 | SCKLSPLGLLLL | 0.618 ± 0.016
45 | TFLQRFCVGLAL | 0.654 ± 0.041
46 | QKEKKKTVKTKI | 0.723 ± 0.09
47 | SFCHWHLFPPRS | 0.711 ± 0.041
48 | RKICINIEKKGE | 0.682 ± 0.018
49 | PPLLPPGPPSPP | 0.588 ± 0.01
50 | VCGLGGGQWQGV | 0.729 ± 0.028

Row | Sequence | protein stability index
51 | KVDRDRTGIHWS | 0.671 ± 0.061
52 | VSLPTAPFPLPS | 0.844 ± 0.084
53 | RCALATTNHPRS | 0.718 ± 0.056
54 | AAVRPAHRICYS | 0.733 ± 0.041
55 | WGGWGRVWVKLG | 0.701 ± 0.05
56 | VFKNRWLGGEKV | 0.69 ± 0.012
57 | ARPPSPRPPPAP | 0.675 ± 0.062
58 | RTVRRNPHGRPR | 0.6832 ± 0.005
59 | STGTASAHRVQI | 0.66 ± 0.011
60 | RGLNIPRLSCRY | 0.748 ± 0.008
61 | VTVGGAWSGTRG | 0.647 ± 0.06
62 | SSSSSSALSGFE | 0.704 ± 0.051
63 | TWIRIEQKTEVR | 0.631 ± 0.017
64 | PDDGLSAPPAAF | 0.722 ± 0.14
65 | PHLPPRPFPTAP | 0.757 ± 0.063
66 | GRWFGGRGVGEG | 0.635 ± 0.013
67 | KAGVWLWGGGGG | 0.678 ± 0.069
68 | LWCFVVGEVNGV | 0.6209 ± 0.0034
69 | HWHLIKIKLKEK | 0.742 ± 0.043
70 | HVDGGAVLLEGQ | 0.67888 ± 0.00049
71 | ERLHRRRRGECA | 0.6743 ± 0.0061
72 | RWLGNPLLQRYH | 0.567 ± 0.043
73 | CCLSVSSHLPHS | 0.7096 ± 0.00068
74 | SIRGNGCVVCGT | 0.708 ± 0.093
75 | LPKTSPRSRRER | 0.6868 ± 0.0053

Row | Sequence | protein stability index
76 | LVVTTLQSVVLG | 0.559 ± 0.085
77 | ECVERYLFGEGA | 0.71403 ± 0.00042
78 | GWGGLFGCWVCG | 0.656 ± 0.015
79 | EVNYKKRQNKKN | 0.71 ± 0.0066
80 | RLFLGSIGTLTS | 0.673 ± 0.046
81 | VGSMRRYCRTKI | 0.792 ± 0.25
82 | GWKLGAVRRGVI | 0.706 ± 0.015
83 | EVTSQGWRNGVD | 0.742 ± 0.028
84 | GVGEWRSGVGVG | 0.592 ± 0.043
85 | TKKETRDKKVER | 0.721 ± 0.0086
86 | PSPPPHSAPPLP | 0.732 ± 0.025
87 | FVGAAALSVWGG | 0.645 ± 0.0072
88 | AVYWRRIRRGRA | 0.6714 ± 0.0018
89 | FPLTKASSPSLL | 0.672 ± 0.073
90 | GNLVKTLERDKP | 0.736 ± 0.034
91 | TKDRGRVYRQRG | 0.798 ± 0.051
92 | PSLSPPVHALLF | 0.722 ± 0.013
93 | TIGVTCSRLGRG | 0.685 ± 0.014
94 | LSTPSLFTPFRA | 0.715 ± 0.024
95 | YCGGRGGGWEIG | 0.682 ± 0.027
96 | MVKLGVGREEVV | 0.655 ± 0.018
97 | ISSIRKNSKREE | 0.755 ± 0.031
98 | PVLANPQGHPPN | 0.719 ± 0.027
99 | AGGGVKLWWGRE | 0.657 ± 0.054
100 | NRDIYQNWPKRK | 0.831 ± 0.14

Row | Sequence | protein stability index
101 | WGRCGAVGRGGA | 0.693 ± 0.029
102 | DCVSLFRVPRVA | 0.612 ± 0.028
103 | PSRRILFSAALL | 0.764 ± 0.28
104 | VRDTTRTEKLGP | 0.687 ± 0.002
105 | GFVVCVFPLLLP | 0.563 ± 0.029
106 | PPPPPPPLPPPP | 0.667 ± 0.015
107 | GGTGFMHSVDYG | 0.644 ± 0.0089
108 | FFRFLLPFLPPS | 0.70866 ± 0.0006
109 | PAPPPRRPPAPP | 0.689 ± 0.017
110 | CPTLTCPRLPSP | 0.684 ± 0.11
111 | DLHCRSAILALL | 0.594 ± 0.034
112 | CAGSRIYCVSLS | 0.641 ± 0.062
113 | RKKRYRRRKIKK | 0.773 ± 0.025
114 | VLSLHPRRATLL | 0.615 ± 0.03
115 | CPRSWWELLAID | 0.739 ± 0.045
116 | LNTETNVVLLEG | 0.671 ± 0.035
117 | ALCHASSLHLQS | 0.724 ± 0.059
118 | MDTYIQKKKYIK | 0.69 ± 0.0099
119 | ELRTKRGASNPR | 0.7097 ± 0.0021
120 | AFRVPGSCAFSP | 0.641 ± 0.011
121 | PLPPPPSPLPHF | 0.692 ± 0.013
122 | PPHPDTSPSFPP | 0.6787 ± 0.0022
123 | GGRRTEIYTGPA | 0.703 ± 0.019
124 | TFLVDLLSLFFL | 0.65 ± 0.046
125 | TSPRILLPLNAT | 0.694 ± 0.014

Row | Sequence | protein stability index
126 | AVSSGPGSCSNP | 0.668 ± 0.013
127 | WFRPLSMLPPGF | 0.701 ± 0.02
128 | GGSSWSLGGGGG | 0.7406 ± 0.0023
129 | CFEGPSSRRYFV | 0.699 ± 0.083
130 | CSLRDRCAFSFG | 0.6982 ± 0.0052
131 | LWPLPSASVILL | 0.515 ± 0.12
132 | VHRYGGFRGEMS | 0.702 ± 0.08
133 | CNFGLHSCALLY | 0.723 ± 0.033
134 | KNIKKKNKNDKK | 0.6936 ± 0.0063
135 | HPPPPAPTPSSR | 0.711 ± 0.04
136 | ASRSRFMREQMV | 0.567 ± 0.027
137 | CRGAGGRTVING | 0.665 ± 0.043
138 | WGRRGRRGSWGA | 0.683 ± 0.024
139 | PPPLASLPSFLR | 0.739 ± 0.011
140 | QKLGNNNAKDLM | 0.66 ± 0.062
141 | LRPLSPPTLLPA | 0.664 ± 0.022
142 | QHFAKAIVQTTT | 0.679 ± 0.02
143 | LGSVVADGPHKL | 0.625 ± 0.0097
144 | PLCRPARPRHHS | 0.7256 ± 0.0015
145 | HSVEPARSSSAM | 0.669 ± 0.07
146 | SLERWNPGGSGV | 0.656 ± 0.025
